Here are results for 34 sequences from the NTF2 design screens of Basanta et al. (2020).

The series in a line: protease stability score; higher = more stable; yeast display proteolysis, trypsin and chymotrypsin.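 Note: relative to predicted unfolded state with 0 unfolded-like and 1 meaning tenfold more protease.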
For the sequence “TEDEDYMHDATREFVTNVATGDEDRLRELMDPRTRHVYNGVRLHGRNLALEFWTHFRRELGVDHIEIRIRDLKFQGDYIHLHTEIVMDFNGVRIIYDTFVRVRKFNGQWMLQSSEIH”, the protease stability score was found to be 0.194. The same measure for “TEDEEAAERMIKTWLEKIITGNEEFLTEFMDPDTKVDINGKELHGWEDILQHLRHIRVHDMHVEIEDVRFINGVIEIRGTMHKDGEVNGRRTQTEQHVVFVLQKIDGRWRLRSYSIR”: 2.27; for “TEDEEAARRHTQEWIHAVRTGDEELLERMIDPEYKLDYNGVDIIGREEYIRIRSEQLQKFKNMRIEVRIHELRHQGDKIDLDVLIIEKWNGVTFRERSHLVILKFDGRWFIRFTSIK”: 0.801. Under “TEDEEAFKENIRILLELTKTGDFKEMSKLLDPHVRIIINGKLFVGMEHADRLVRERNEEWRIESLEVEHLQSVDGQIHADTKMHVNINGVHRIHDTHQIVLKVNGRWFMEQIEIR” stands 1.01; under “TEDEEDSLFAFDEWVKSVETGDEHTLSKLADPHTRLNVNGVDQHGRENMSHMMLRLANRYDHIEIRLHSWRLINGRIEVDSRVINVVGDKRIESNFHMFILKVNGRWLMHSVHFE”, 0.847. Under “TEDEEFAFEIIRLFHEALLTGDEETLHHLVDPNARMQIGEFTTHGRSMVKFFNKRFDHWEMRVEFRRIHYIGDKVFVDTRIRILIEYNGRFIETSVEQRIVTRKIDGKWQITRLEIV” stands 1.05. “TEDEEISEKAFRYLVESLETGDEETDRHLADPHVRIVFEGRSYHGREQFHEIMSHIRVHHVEIRDVRVQGNKVDWDTQSKVEFNGRKYWVQTRIIVLKVDGRWILHSYILK” displayed a protease stability score of 0.708. Under “TEDEEKSHEFVHRLSHSVMTGDWKDIKRLADPNMKSRVNGREIHGWDKTKRMLDEEEEQLGVSRFEFDLKRVDTQGDKLFIDMRMKVNGRTLEVTYHVEKVNGRWLVTEFHIL” stands 0.555. Under “TEDEELAKLVSEILLHIMETGDEDKLSKMADPHVRVNINGRERHGWRNMVRVLHETIRNLGIEIKSVHIRDLKIQGDKIRVTMEIDYQQGDKRNEWSSHLIIIKIDGRWHLHAFELN” stands 1.26. Under “TEDEELIERYVRFFLKIMETGDEKLTERMMDPDARFEIGDKEEHGREAIYEWLSKIKNIRIKIHHIKIQGDKLHLDVRFHINGKEIEVEIVSKKIDGKWMVHSVIVK” stands 1.5. “TEDEELSHEIFEIWERVRRTGDEHTLERLADPNMRVHIDGQDYHGREMLFEFLNRFKGLKSDIHDMRIEIVGDYIILNIKVHITVNGREIHLTIHLHSRKFNGKWHLKELEIRKI” returned a protease stability score of 1.32.

As for “TEDEELTSRANKEFQEFETTGDEEVLKRLFDPNTRLDVNGQDRHGRDEVVHLLVRMIHKLGIDHVSLKEVRIVNGKLDLNLTINVGEKRINTRLIHKKVNGRWVIETVEMG”, the protease stability score was determined as 1.23. Under “TEDEENAERVARMFLKLLTTGDEHRLTELLDPNVIVEVGDKILIGREEALKLLRTWREKYGIDHVDVRHVEIEIVGDKVNVHMHGTIYVGDKKKDTRIHLHIRKINGRWMVEKVSIEEK” stands 2.68; under “TEDEENVIEATRIFNRVLETGDEDSLKRLLDPNVRVNFDGVELIGWEDFLKFVFEWRKKAGITQVKSEPRDMDLQGNKVHNETILHINGRTFETRLVHEKVNGRWIARSIRFS”, 1.21; under “TEDEEYVKHIIDLFWHVKKTGDESHMKELADPNVRIEVDGRDIIGMEDVLKWEKDHREKIKGIRLNVHQWRIIGNKVESDLIVNINGVTIEFHVTVIIVNGKLHSLRVEFE”, 1.21. Under “TEDEHDARLALHILLELLRTGDEDSLSKYIDPNVRNEVNGQDLHGRNTMERLLKHWRIEEVRVKDVRVQGDKVIMHGREVIRQGDYVIDQDVHWLLVKVDGRWLLHSIHFR” stands 0.918. Under “TEDEHHEELIAKELFHNFLTGNEDLLSEMADPNTKSDIDGKHDVGREEMSRSLIEFLDKMGIKHLVLTDHRAVNGKVILHERVHVNGRDIEVNLTWDVWNGRIKRVEIRITHR” stands 0.982. Take “TEDEKFVEEFTRLIMHSFRTGDWELFEHLLDPDTRIEQGDWERIGMEEAIRLLHKVVHEMRVTHTDLKSITVIDGRIEIDARVHLEFNGQSVTYTQLILSIKIDGRWVLKSVHFH”: the protease stability score came out at 1.87. The same measure for “TEDEKIAKDTLEEITEALATGDEDQLNRLMDPNVKIFFNGQEIHGRHDSVKYWREIRIRDSHIIIRHVDIQGDKIRLDGEYQLRGEIDGQEIERTMHVRLFMHKVNGRWIVRRQVWG”: 1.56; for “TEDEKLSEDMTQHFIELLFTGDFDKISELADPNVRIHAENRTLVGRESFKRLMKKEIEFFKGARFHIEDLHIYDGRVDIHEIVSYGEFVIRRTIHSHKINGKWLETEVRLG”: 0.929; for “TEDEKLVEIALELWLRSLRTGDEDMFRELFDPNTRIFVNGVDHHGRHALEIVKERYDHVRDFHIELRSVHYVNGVLHVDGHFRMDIKYGDKRRIIENRTIMIIEKINGRWIFKHERLE”: 1.24. Under “TEDEKMAEDLLKLILEAMETGDERIFRHLVDPNVRVSQGEKQLHGREAVEEMLKHLRLHRVRIRDVHVVGDKIIVQGEIHGEIGDFRFESHIIVYIHKFNGQWRHKSIEIK” stands 1.42; under “TEDEKMLKESLERLLYTLHTGDEEFNKRLMDPEVRIVIGDKELHGMELARKFWEKLYKDLGADHVHMDVKHVRSIGDKVEVDSQLIFRVGDKEIRVDTKLFSHKFDGRWRLRYEYVD”, 1.39.

In the case of “TEDEKRYDDLVRHMLEVHRTGDEDLLERLLDPNARFLIDGVEYHGREQALEIARELRITSIRIRRIEFYGDKVTMDTEIDGRVNGRRRDTRVKEIWLKVDGKWYLESMEIH”, the protease stability score was 1.43. “TEDEKTAKHAKELLEHSIRTGDERLMERLLDPHALLIFDGRHIHGREDISRWYREIRIHHIHDENSEIQGDKLHLHMRIDGEYDGKRHELRVHWHSEKVNGRWSIRQVVLH” had a protease stability score of 1.44. “TEDEKVMKEAVEIQIHMFRTGNWDSLHKLVDPNARLDVDGREFHGREDFVRFIKKEAHEARVEDVIFRHVTTQGDKIVTHFDVRGVINGVEEIRKVTVFLRKINGRWLIESEEID” yielded a protease stability score of 0.737.

The sequence “TEDEKVNDLAMEEIYTLMLTGDEERMEELFDPNVRMIIDGRRHVGREVFKDHMREWRWERTHVEDQRTFDGRAILHTRVDVTVGDKRRDVRIHIISSKINGRWVIKRIIIE” came in with a protease stability score of 0.758. Under “TEDERDAKRMAETMVKLWETGDWRTLFELADPDMRFEYGDKRFHGREKLIKVLRDIFERLGIDHSHVRDFKIIFVGEKVEVRLDIETHFDGRTEEFHIEINVRKIDGRWRLKSMHIEIR” stands 2.02; under “TEDERDFREFWERWLHNTVTGDEELLSRMMDPHAKLHVGDKENVGMEEAARLFVEISDELRLHSFHIRHEEHQGDKVILHTRMNVRINGKEINFRTVMIVRKIDGRWIIRSFQID”, 0.713; under “TEDERDMHEAMERHLQDLRTGNWEDVHRQVDPNVRLVFNGKEVHGREEYVEHTVRLAERADHIELRIRHIDTQGDKLRVEGELIIRQGDKTFIHEVELLFLKVNGRWIIHSFEIK”, 1.55. The same measure for “TEDERDMQEFYERLIHAIHTGDWREIRRQFDPNVLLNFNGKEIHGREQALRLMRELLHRADVIDDTKTKDLKFYNGRVELHIHEQGQINGQHFRSDVMLIVEKVNGRWYMKSYQID”: 1.37. Under “TEDERDVVKLLHLVSKLWLTGDEHILEHLADPSVRSDFDGVRLHGRRLLSYFLSELRIHHVEVRDVRVEYQGDKLIARSDTEVDLEIDGQRHRMDTRMILISRKWDGRWLIESISFEIQ” stands 2.04. Turning to “TEDERHLEESIELFHEVHRTGDEEQLHRMLDPSVRVDVNGRILHGREIVVEWLRRTLEKFKNVQIEFILKDRDHINGVLRIHGVLLVNVGDKHTIIDTIIVAHKVNGRWLIHSMHVK”, the protease stability score is 2.15. The same measure for “TEDERILKELAHLLLLLWKTGDENIWRELADPNVRVIFLIGDKEEHHHGRDMFIKLRHDYGVDHMELRRVDVQGDKVRFEGDLWVDGRIHRVHINFSVINGKVHQIKIDFS”: 2.49.
